Laboratory results taken from patent US20210047398A1, “ASPROSIN, A FAST-INDUCED GLUCOGENIC PROTEIN HORMONE” (Baylor College of Medicine, priority 2016, published 2021).

Test system: POMC neurons
Test: Whole-cell patch clamp recordings on POMC neurons
Type: cell-based, mice
Procedure: Electrophysiology—Whole-cell patch clamp recordings were performed on identified AgRP neurons or POMC neurons in the brain slices containing the arcuate nucleus of the hypothalamus (ARH). In particular, to identify AgRP neurons, the inventors crossed Rosa26-tdTOMATO allele onto the regular AgRP-Cre mice (Tong et al., 2008) to generate AgRP-Cre/Rosa26-tdTOMATO mice, which express TOMATO selectively in AgRP/NPY neurons. In some studies, the inventors crossed NPY-GFP mice (Pinto et al., 2004) with NPS mice to generate NPY-GFP mice with or without the NPS mutation, and GFP-labelled neurons in the arcuate nucleus were recorded. In order to record POMC neurons, the inventors crossed Rosa26-tdTOMATO allele onto the POMC-CreERT2 mice (Berglund et al., 2013) to generate POMC-CreERT2/Rosa26-tdTOMATO mice, which express TOMATO selectively in mature POMC neurons upon tamoxifen induction (0.2 mg/g, i.p. 6 weeks of age). In some studies, the inventors also crossed the AgRP-DTR allele onto POMC-GFP mice, and these mice received DT or saline injections (described above) to generate mice with or without AgRP neurons ablated.
Six to twelve-week old mice were deeply anesthetized with isoflurane and transcardially perfused with a modified ice-cold sucrose-based cutting solution (pH 7.3) containing 10 mM NaCl, 25 mM NaHCO3, 195 mM Sucrose, 5 mM Glucose, 2.5 mM KCl, 1.25 mM NaH2PO4, 2 mM Na-Pyruvate, 0.5 mM CaCl2, and 7 mM MgCl2, bubbled continuously with 95% O2 and 5% CO2 (Ren et al., 2012). The mice were then decapitated, and the entire brain was removed and immediately submerged in the cutting solution. Slices (250 μm) were cut with a Microm HM 650V vibratome (Thermo Scientific). Three brain slices containing the arcuate nucleus were obtained for each animal (Bregma −2.06 mm to −1.46 mm; Interaural 1.74 mm to 2.34 mm), and recordings were made at levels throughout this brain region. The slices were recovered for 1 h at 34° C. and then maintained at room temperature in artificial cerebrospinal fluid (aCSF, pH 7.3) containing 126 mM NaCl, 2.5 mM KCl, 2.4 mM CaCl2, 1.2 mM NaH2PO4, 1.2 mM MgCl2, 11.1 mM glucose, and 21.4 mM NaHCO3) saturated with 95% O2 and 5% CO2 before recording.
Slices were transferred to a recording chamber and allowed to equilibrate for at least 10 min before recording. The slices were superfused at 34° C. in oxygenated aCSF at a flow rate of 1.8-2 ml/min. GFP or TOMATO-labeled neurons in the ARH were visualized using epifluorescence and IR-DIC imaging on an upright microscope (Eclipse FN-1, Nikon) equipped with a moveable stage (MP-285, Sutter Instrument). Patch pipettes with resistances of 3-5 MΩ were filled with intracellular solution (pH 7.3) containing 128 mM K-Gluconate, 10 mM KCl, 10 mM HEPES, 0.1 mM EGTA, 2 mM MgCl2, 0.05 mM Na-GTP and 0.05 mM Mg-ATP. Recordings were made using a MultiClamp 700B amplifier (Axon Instrument), sampled using Digidata 1440A and analyzed offline with pClamp 10.3 software (Axon Instruments). Series resistance was monitored during the recording, and the values were generally <10 MΩ and were not compensated. The liquid junction potential was +12.5 mV, and was corrected after the experiment. Data were excluded if the series resistance increased dramatically during the experiment or without overshoot for action potential. Currents were amplified, filtered at 1 kHz, and digitized at 20 kHz. Current clamp was engaged to test neural firing frequency and resting membrane potential (RM) at the baseline and puff delivered recombinant Asprosin (500 ms at various concentrations indicated in the figures). For the asprosin antibody pre-incubation experiment, asprosin and anti-asprosin mAB or IgG were gently mixed at a 1:100 ratio, and then kept on ice for one hour before recording. After AgRP or POMC neuron response to asprosin alone was confirmed, the mixture of recombinant asprosin and anti-asprosin mAB or IgG was perfused to treat the AgRP or POMC neurons for 4 minutes. […]

B1: recombinant asprosin: 146 amino acid E. coli expressed fusion protein: 6 amino acid N-terminal His tag and 140 amino acid wild type asprosin (FBN1 2732-2871) (protein)
chain: HHHHHHSTNETDASNIEDQSETEANVSLASWDVEKTAIFAFNISHVSNKVRILELLPALTTLTNHNRYLIESGNEDGFFKINQKEGISYLHFTKKKPVAGTYSLQISSTPLYKKKELNQLEDKYDKDYLSGELGDNLKMKIQVLLH
**Q.** For B1, which “miniature inhibitory post-synaptic current (mIPSC) in POMC neurons” value is on record?
**A.** The value was “increased the frequency but not amplitude”.

**Q.** And the “POMC neuron firing frequency with AgRP neuron ablation” value (AgRP neuron ablated mice)?
**A.** The value was “little effect”.

**Q.** What about the “asprosin-mediated hyperpolarization in POMC neurons with AgRP neuron ablation” value (AgRP neuron ablated mice) of the same molecule?
**A.** The value was “completely prevented”.

**Q.** And the “POMC neuron hyperpolarization with blockade of glutamatergic inputs” value (TTX + CNQX + AP5)?
**A.** The value was “did not affect”.

**Q.** And the “ability to hyperpolarize POMC neurons, GABAergic input” value (TTX + bicuculline)?
**A.** The value was “dependent on intact GABAergic input”.

**Q.** What about the “proportion of POMC neurons inhibited” value (reduced resting membrane potential and firing frequency) of the same molecule?
**A.** Its value is ~85%.
